In patent publication US20130071379A1:
Changes are numbered by the printed parent chain. Blank lines part the entries; values can stand above or below the binder they belong to.

Molecular target: PCSK9
Test: Biacore SPR

Kd: 3.73 nM
B1: 1B20 variant C8 (antibody, part only; not given: light chain, V domains shown, part only)
VH: QVQLVQSGAEVKKPGESLKISCKGSGYSFTNYYIAWVRQMPGKGLEWMGMIYPGDSYTSYSHRFQGQVTISADKSISTAYLQWSSLKASDTAMYYCARDHWYRPYFDIWGQGTLVTVSS

Kd: 1.39 nM
B2: 1B20 variant A6 (antibody, part only; not given: light chain, V domains shown, part only)
VH: QVQLVQSGAEVKKPGESLKISCKGSGYSFTNYYISWVRQMPGKGLEWMGLIYPGDSYTRYNPSFQGQVTISADKSISTAYLQWSSLKASDTAMYYCARDYYSRPFSDIWGQGTLVTVSS

Kd: 2.01 nM
B3: 1B20 variant H1 (antibody, part only; not given: light chain, probably the common parent VL, V domains shown, part only)
VH: B2 VH with N31D, S35A, L50I, S63R, Y101W, R103K, F105L

Kd: 1.53 nM
B4: 1B20 variant G3 (antibody, part only; not given: light chain, probably the common parent VL, V domains shown, part only)
VH: B2 VH with S63K, F105Y, I108V

Kd: 1.65 nM
B5: 1B20 variant C1 (antibody, part only; not given: light chain, probably the common parent VL, V domains shown, part only)
VH: B1 VH with A35S, S59R, H62P, R63K, F106S

Kd: 2.2 nM
B6: 1B20 variant G6 (antibody, part only; not given: light chain, probably the common parent VL, V domains shown, part only)
VH: B2 VH with N31D, S35N, L50M, R59N, S63K, M93I, Y100H, Y101W, I108V

Kd: 1.65 nM
B7: 1B20 variant G5 (antibody, part only; not given: light chain, V domains shown, part only)
VH: B2 VH with N31D, N61S, S63N, Y100H, Y101G, S102Y, F105Y

Kd: 3.14 nM
B8: 1B20 variant F4 (antibody, part only; not given: light chain, probably the common parent VL, V domains shown, part only)
VH: B2 VH with N31D, N61S, R103K, F105L, S106F, I108V

Kd: 2.9 nM
B9: 1B20 variant G4 (antibody, part only; not given: light chain, probably the common parent VL, V domains shown, part only)
VH: B1 VH with A35S, M50L, S59R, H62P, W101G, R103K, F106S

Kd: 2.68 nM
B10: 1B20 variant F6 (antibody, part only; not given: light chain, probably the common parent VL, V domains shown, part only)
VH: B2 VH with R59H, Y100H, Y101W, S102Y, R103K

Kd: 1.21 nM
B11: 1B20 variant B3 (antibody, part only; not given: light chain, probably the common parent VL, V domains shown, part only)
VH: B1 VH with A35S, S61N, H62P, R63K, Y102S, R103K

Kd: 4.5 nM
B12: 1B20 variant C3 (antibody, part only; not given: light chain, probably the common parent VL, V domains shown, part only)
VH: B2 VH with Q3K, S35A, L50I, R59H, S63K, Y100H, Y101G, S102Y, R103K

Kd: 2.1 nM
B13: 1B20 variant C6 (antibody, part only; not given: light chain, V domains shown, part only)
VH: B1 VH with A35T, S59H, S61N, H62P, R63S, R103K, Y105L

Kd: 2.05 nM
B14: 1B20 variant G7 (antibody, part only; not given: light chain, probably the common parent VL, V domains shown, part only)
VH: B1 VH with N31D, A35S, M50W, S59H, H62P, R63S, Y102S, R103K, I108V

Kd: 1.95 nM
B15: 1B20 variant A9 (antibody, part only; not given: light chain, probably the common parent VL, V domains shown, part only)
VH: B1 VH with A35S, S59R, H62P, R63K, F106S

Kd: 1.52 nM
B16: 1B20 variant H4 (antibody, part only; not given: light chain, probably the common parent VL, V domains shown, part only)
VH: B2 VH with S35T, K43R, L50I, S63K, Y100H, Y101W, R103K, I108V

Kd: 7.93 nM
B17: 1B20 variant A3 (antibody, part only; not given: light chain, V domains shown, part only)
VH: B1 VH with N31D, A35S, S59R, H62P, R63N, Y105L, F106S

Kd: 2.21 nM
B18: 1B20 variant B2 (antibody, part only; not given: light chain, probably the common parent VL, V domains shown, part only)
VH: B2 VH with R59N, S63N, Y100H, R103T, S106F, I108V

Kd: 1.01 nM
B19: 1B20 variant F2 (antibody, part only; not given: light chain, V domains shown, part only)
VH: B2 VH with S35A, L50V, S63K, Y101W, F105Y, S106F

Kd: 4.22 nM
B20: 1B20 variant E5 (antibody, part only; not given: light chain, probably the common parent VL, V domains shown, part only)
VH: B2 VH with N31D, L50W, R59H, S63N, Y100R, Y101W, R103T, F105Y, S106F, I108V

Kd: 1.36 nM
B21: 1B20 variant B5 (antibody, part only; not given: light chain, probably the common parent VL, V domains shown, part only)
VH: B2 VH with N31D, L50M, N61S, W83S, Y101W, S102Y, R103K, I108V

Kd: 1.26 nM
B22: 1B20 variant F7 (antibody, part only; not given: light chain, V domains shown, part only)
VH: B2 VH with S35A, L50I, R59H, S63K, Y100H, Y101W, I108V

Kd: 3.21 nM
B23: 1B20 variant D8 (antibody, part only; not given: light chain, V domains shown, part only)
VH: B1 VH with N31D, A35S, S59H, H62Q, R63S, Y105L

Kd: 2.62 nM
B24: 1B20 variant E2 (antibody, part only; not given: light chain, probably the common parent VL, V domains shown, part only)
VH: B2 VH with P62R, S63K, F105L, I108V

Kd: 3.73 nM
B25: 1B20 variant B1 (antibody, part only; not given: light chain, probably the common parent VL, V domains shown, part only)
VH: B1 VH with N31D, A35S, M50I, S59H, H62P, R63N, H100Y, R103T, Y105F, I108V

Kd: 1.91 nM
B26: 1B20 variant D4 (antibody, part only; not given: light chain, probably the common parent VL, V domains shown, part only)
VH: B2 VH with N31D, S35A, L50I, S63K, Y101W, I108V

Kd: 2.41 nM
B27: 1B20 variant H5 (antibody, part only; not given: light chain, probably the common parent VL, V domains shown, part only)
VH: B1 VH with N31D, A35S, M50I, H62P, H100Y, Y102S, Y105L, I108V

Kd: 2.53 nM
B28: 1B20 variant C7 (antibody, part only; not given: light chain, probably the common parent VL, V domains shown, part only)
VH: B1 VH with N31D, A35S, M50W, S59H, R63N, Y102S, Y105F, F106S, I108V

Kd: 2.62 nM
B29: 1B20 variant E3 (antibody, part only; not given: light chain, V domains shown, part only)
VH: B1 VH with N31D, A35S, H62P, H100Y, Y105F, F106S

Kd: 2.01 nM
B30: 1B20 variant B4 (antibody, part only; not given: light chain, probably the common parent VL, V domains shown, part only)
VH: B2 VH with N31D, R59H, S63N, Y101W, R103K, F105L, S106F, I108V

Kd: 1.6 nM
B31: 1B20 variant D5 (antibody, part only; not given: light chain, probably the common parent VL, V domains shown, part only)
VH: B1 VH with A35T, M50L, S59R, H62P, Y102S, F106S, I108V

Kd: 2.68 nM
B32: 1B20 variant D3 (antibody, part only; not given: light chain, V domains shown, part only)
VH: B2 VH with N31D, S35T, L50M, N61S, S63K, Y101W, R103K, S106F, I108V

Kd: 2.38 nM
B33: 1B20 variant E4 (antibody, part only; not given: light chain, probably the common parent VL, V domains shown, part only)
VH: B2 VH with L50W, R59S, P62Q, S63K, Y101W, R103K, F105Y, I108V

Kd: 4.9 nM
B34: 1B20 variant H7 (antibody, part only; not given: light chain, probably the common parent VL, V domains shown, part only)
VH: B1 VH with N31D, A35S, L45P, S59R, H62Q, R63K, M93I, Y102S, Y105L, F106S

Kd: 2.88 nM
B35: 1B20 variant B6 (antibody, part only; not given: light chain, probably the common parent VL, V domains shown, part only)
VH: B2 VH with N31D, L50I, R59N, Y101W, S102Y

Kd: 1.28 nM
B36: 1B20 variant A7 (antibody, part only; not given: light chain, V domains shown, part only)
VH: B2 VH with L50I, S63N, Y101W, R103K, F105L, I108V

Kd: 2.41 nM
B37: 1B20 variant F5 (antibody, part only; not given: light chain, probably the common parent VL, V domains shown, part only)
VH: B1 VH with N31D, A35T, S59N, S61R, R63N, H100Y, Y102S

Kd: 1.62 nM
B38: 1B20 variant E8 (antibody, part only; not given: light chain, probably the common parent VL, V domains shown, part only)
VH: B1 VH with A35T, S59R, H62P, R63K, Y102S, R103K, Y105L, F106S, I108V

Kd: 3.81 nM
B39: 1B20 variant B9 (antibody, part only; not given: light chain, V domains shown, part only)
VH: B2 VH with L50I, T58I, R59H, P62Q, S63N

Kd: 4.47 nM
B40: 1B20 variant B8 (antibody, part only; not given: light chain, V domains shown, part only)
VH: B1 VH with A35S, S59H, H62P, R63N, H100Y, Y102S, R103K, I108V

Kd: 2.15 nM
B41: 1B20 variant A1 (antibody, part only; not given: light chain, probably the common parent VL, V domains shown, part only)
VH: B2 VH with N31D, Y101W, R103K, F105L

Kd: 2.25 nM
B42: 1B20 variant C2 (antibody, part only; not given: light chain, probably the common parent VL, V domains shown, part only)
VH: B1 VH with N31D, M50L, S61N, H62P, H100Y, Y102S, R103T

Kd: 3.47 nM
B43: 1B20 variant F1 (antibody, part only; not given: light chain, probably the common parent VL, V domains shown, part only)
VH: B2 VH with N31D, R59N, N61S, S63K, Y100H, Y101W, R103K, F105L, I108V

Kd: 1.36 nM
B44: 1B20 variant E1 (antibody, part only; not given: light chain, probably the common parent VL, V domains shown, part only)
VH: B1 VH with A35S, S61N, H62P, R63N, Y102S, R103K, Y105F

Kd: 1.35 nM
B45: 1B20 variant F8 (antibody, part only; not given: light chain, probably the common parent VL, V domains shown, part only)
VH: B2 VH with L50M, R59N, P62Q, S63K, Y101W, F105Y

Kd: 6.81 nM
B46: 1B20 variant A5 (antibody, part only; not given: light chain, probably the common parent VL, V domains shown, part only)
VH: B2 VH with N31D, L50W, R59H, S63M, Y100R, Y101W, F105Y, S106F

Kd: 1.35 nM
B47: 1B20 variant H8 (antibody, part only; not given: light chain, probably the common parent VL, V domains shown, part only)
VH: B1 VH with N31D, A35S, S59H, H62Q, R63N, Y102S, Y105F, I108V

Kd: 1.51 nM
B48: 1B20 variant G8 (antibody, part only; not given: light chain, probably the common parent VL, V domains shown, part only)
VH: B2 VH with N31D, R59H, S63N, Y100H, Y101W, R103K, F105Y, S106F, I108V

Kd: 1.19 nM
B49: 1B20 variant A8 (antibody, part only; not given: light chain, probably the common parent VL, V domains shown, part only)
VH: B1 VH with A35S, S59H, H62P, R63N, H100Y, Y102S, R103K, I108V

Kd: 2.11 nM
B50: 1B20 variant G2 (antibody, part only; not given: light chain, probably the common parent VL, V domains shown, part only)
VH: QVKLVQSGAEVKKPGESLKISCKGSGYSFTDYYISWVRQMPGKGLEWMGIIYPGDSYTHYNPKFQGQVTISADKSISTAYLQWSSLKASDTAMYYCARDRWSKPLFDVWGQGTLVTVSS

Kd: 2.15 nM
B51: 1B20 variant A4 (antibody, part only; not given: light chain, probably the common parent VL, V domains shown, part only)
VH: B50 VH with K3Q, I50S, N61S, P62H, M93I, R100H, K103R, L105F

Kd: 1.89 nM
B52: 1B20 variant H3 (antibody, part only; not given: light chain, probably the common parent VL, V domains shown, part only)
VH: B1 VH with A35T, S59H, H62Q, M93I, Y102S, Y105L, I108V
